Reference: paper PMC12199146

Biological target: T1, Endonuclease V (EcEndoV), wild-type (Escherichia coli) (UniProt P68739)
T1 sequence: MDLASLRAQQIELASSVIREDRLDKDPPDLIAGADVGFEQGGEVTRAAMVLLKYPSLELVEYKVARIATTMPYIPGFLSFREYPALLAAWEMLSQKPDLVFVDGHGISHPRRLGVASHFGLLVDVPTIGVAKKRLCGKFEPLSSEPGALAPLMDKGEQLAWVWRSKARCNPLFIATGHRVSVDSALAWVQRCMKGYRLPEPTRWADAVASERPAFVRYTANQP
Assay: EMSA
Conditions: 5 mM Mg2+; pattern similar to A-RNA; one inosine; EMSA: 25 mM sodium phosphate pH 6.5, 50-300 mM NaCl (500 mM in Fig. S17E), 1 mM DTT, 5 mM MgCl2, 30 min on ice, 2 pmol RNA in 10 ul, 12% native gel in TBE at …

1I-RNA (single-edited 20-mer dsRNA, one I:U pair)
binding signal (fold KD vs I-RNA): 2
